The values that follow come from patent US20220411514A1 (published 2022).

Some results are limits rather than exact numbers.

In the experiment the target is hGal-3 (UniProt P17931 2-250). Kind of experiment: SPR. In general terms: SPR reads the build-up and loss of mass on a sensor chip optically.
Sequence of hGal-3 (P17931 2-250): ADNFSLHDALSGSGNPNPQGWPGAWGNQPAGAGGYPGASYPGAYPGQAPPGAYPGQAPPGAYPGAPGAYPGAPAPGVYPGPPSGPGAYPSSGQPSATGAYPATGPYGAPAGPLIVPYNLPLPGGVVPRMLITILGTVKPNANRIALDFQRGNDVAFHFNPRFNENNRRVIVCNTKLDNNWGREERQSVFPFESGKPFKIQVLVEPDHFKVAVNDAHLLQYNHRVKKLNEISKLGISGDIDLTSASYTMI

B1: 15G7.2A7 (antibody, V domains shown)
VH: EVQLQQSGPELVKPGASVKISCKASGYTFTDYYMNWVKQSHGKSLEWIGDINPNNGGTNYNQKFKGKATLTVDKSSSTAYMELRSLTSEDSAVYYCTSGYGFPYWGQGTLVTVSA
VL: DIQMNQSPSSLSASLGDTISITCRASQNINIWLSWYQQKPGNIPQLLIYKASNLHTGVPSRFSGSGSGTDFTLTISSLQPEDIATYYCLQGQSYPLTFGAGTKLVMKR
As for B1, the Kd – broadly, the equilibrium constant for the complex coming apart – was found to be 11.3 nM.

B2: 19D9.2E5 (antibody)
chain 1: QIQLVQSGPELKKPGETVKISCKASGYTFTTYGMGWVKQAPGKGLKWMGWINTYSGVPTYADDFKGRFAFSLETSTSTAYLQINNLKNEDMATYFCATPYEYDGAYWGQGTLVTVSA
chain 2: not shown
Consider B2, for which the equilibrium dissociation constant (Kd) is below 1 nM.

B3: 4G2.2G6 (antibody, V domains shown)
VH: QIQLVQSGPDLKKPGETVKISCKASGYTFTTYVMSWVKQAPGKDLKWMGWINTHSGVPTYADDFKGRFDFSLETSANTAFLQINNLKNEDTATYFCTRDGNDGDAMDNWGQGTSVTVSS
VL: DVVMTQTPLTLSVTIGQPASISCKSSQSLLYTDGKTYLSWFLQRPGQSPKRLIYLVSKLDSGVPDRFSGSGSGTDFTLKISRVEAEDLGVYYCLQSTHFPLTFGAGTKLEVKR
As for B3, the Kd is below 1 nM.

B4: 13G4.2F8 (antibody, V domains shown)
VH: QVQLQQPGAELVKPGASVKLSCKASGYTFTSYWMHWVKQRPGQGLEWIGMIHPNSGSTDYNEKFKNKATLNVDKSSSTAYIQLSSLTSEDSAVYYCTRWGIYYYARDYWGQGTTLTVSS
VL: DIVMTQSQKFMSTSVGERVSITCKASQNVGTNVAWYQQKAGQSLELLIYGASNRHTGVPDRFTGSGSGTDFTLTITNVQSEDMTNYFCEQYSNFPLTFGAGTKLELKR
As to B4, the Kd was 2.53 nM.

B5: 4A11.2B5 (antibody, V domains shown)
VH: QVQLQQSGPELVKPGASVKISCKASGYSFTNYYIHWVKQRPGQGLEWIGWIYPGSGNTNYNEKFKGKATLTADTSSSTTNMQLSSLTSEDSAVYYCSTAPGGFDVWGSGTTVTVSS
VL: DIVMTQAAFSNPVTLGTSASISCRSSKSLLHSDGITYLYWYLQRPGQSPQLLIYRMSNLASGVPDRFSGSGSGTDFTLRISRVEAEDVGVYYCAQMLEFPLTFGAGTKLELKR
Take B5: the Kd came to 5.22 nM.

B6: IMT-006 (antibody, V domains shown)
VH: QVQLVQSGAEVKKPGASVKVSCKASGYSFTNYYMHWVRQAPGQRLEWMGWIYPGSGNTNYNEKFQGRVTITADTSASTAYMELSSLRSEDTAVYYCSTAPGGFDVWGQGTTVTVSS
VL: DIVMTQTPLSLSVTPGQPASISCKSSKSLLHSDGITYLYWYLQKPGQSPQLLIYRMSNLASGVPDRFSGSGSGTDFTLKISRVEAEDVGVYYCAQMLEFPLTFGQGTKLEIKR
As to B6, the Kd amounted to 16.5 nM.

B7: 6H6.2D6 (antibody, V domains shown)
VH: QIQLVQSGPELKKPGETVKISCKASGYTFTTYGMSWVKQAPGKGLKWMAWINTYSGVPTYADDFKGRFAFSLETSASTAYLQINNLTNEDTATYFCARGPYAMDYWGQGTSVTVSS
VL: DIQMTQTTSSLSASLGDRVTISCSASQGISNYLNWYQQKPDGTVKLLIYYTSSLHSGVPSRFSGSGSGTDYSLTISNLEPEDIATYYCQQYSELPYTFGSGTKLEIKR
B7 displayed a Kd of 4.86 nM.

B8: 19B5.2E6 (antibody, V domains shown)
VH: QIQLVQSGPELKKPGETVKISCKASGYTFTTYAMSWVKQAPGKGLKWMGWINTYSGVPTYADDLKGRFAFSLETSASTAYLQINNLKNEDTATYFCARGPYAMDYWGQGTSVTVSS
VL: DIQMTQTTSSLSASLGDRVTISCSASQGINNYLNWYQQKPDGTVKLLIYYASSLHSGVPSRFSGSGSGTDYSLTISNLEPEDIATYYCQQYSQVPYTFGSGTKLEIKR
Molecule B8 yielded a Kd below 1 nM.

B9: 23H9.2E4 (antibody, V domains shown)
VH: QIQLVQSGPELKKPGETVKISCKASGYTFTTYAMSWVKQAPGKGLKWMGWINTYSGVPTYADDLKGRFAFSLETSASTAYLQINNLKNEDTATYFCARGPYAMDYWGQGTSVTVSS
VL: DIQMTQTTSSLSASLGDRVTISCSASQGINNYLNWYQQKPDGTVKLLIYYASSLHSGVPSRFSGSGSGTDYSLTISNLEPEDIATYYCQQYSQVPYTFGSGTKLEIK
The molecule B9 had a dissociation constant (Kd) of 4.26 nM.

B10: 15F10.2D6 (antibody, V domains shown)
VH: EVQLVESGGGLVKPGGSLKLSCAASGFAFSSYAMSWVRQTPEKRLEWVATISDGGVYTYYTDHVKGRFTISRDNAEDNLYLQMSHLKSEDTAMYYCVRDGGYWGQGTTLTVSS
VL: DVLMTQTPLSLPVSLGDQASISCRSSQSIVHNNGNTYLEWYLQKPGQSPKLLIYKVSNRFSGVPDRFSGSGSGTDFTLKISRVEAEDLGVYYCFQGSHVPLTFGGGTKLELKR
As to B10, the Kd came out at 2.06 nM.

B11: 7D8.2D8 (antibody, V domains shown)
VH: EVQLVESGGGLVKPGGSLKLSCAASGFTFSSYAMSWVRQTPEKRLEWVATISDGGIYTYYPDNVKGRFTISRDNAKNNLFLQMSHLKSEDTAMYYCVRDGGYWGQGTTLTVSS
VL: DVLMTQTPLSLPVSLGDQASISCRSSQSIVHSNGNTYLEWYLQKPGQSPKLLIYKVSNRFSGVPDRFSGSGSGTDFTLKISRVEAEDLGVYYCFQGSHVPLTFGAGTKLELKR
Turning to B11, the Kd turned out to be 2.49 nM.

B12: 9H2.2H10 (antibody, V domains shown)
VH: QVQLQQPGAELVGPGSSVKLSCKASGYTFTNYWIHWVKQRPLQGLEWIGNIDPSDSETHYNQKFKDKATLTVDKSSSTAYMQLSSLTSEDSAVYYCARHGYYDYWGQGTTLTVSS
VL: DIVMTQSHKFMSTSVGDRVSITCKASQDVSTAVAWYQQKPGQSPKLLIYWASTRHTGVPDRFTGSGSGTDYTLTISSVQAEDLALYYCQQHYTTPLTFGAGTKLELKR
In the case of B12, binding was put at a Kd of 18.4 nM.

B13: IMT-001 (antibody, V domains shown)
VH: QVQLVQSGSELKKPGASVKVSCKASGYTFTNYGMNWVRQAPGQGLKWMGWINTNTGEPTYVEEFTGRFVFSLETSVSTAYLQISSLKAEDTAVYFCAPYDNFFAYWGQGTTVTVSS
VL: DIVLTQSPLSLPVTPGEPASISCRSSKSLLYKDGKTYLNWFLQKPGQSPQLLIYLMSTHASGVPDRFSGSGSGTDFTLKISRVEAEDVGVYYCQQLVDYPLTFGGGTKLEIKR
Consider B13, for which binding was put at a Kd of 6.09 nM.

B14: 3B11.2G2 (antibody, V domains shown)
VH: QIQLVQSGPELKKPGETVKISCKTSGYKFKTYVMSWVKQAPGKALKWMGWINTYSGVPTYADDFKGRFAFSLETSASTAYLEIINLKNEDTATYFCARDGNYGDPMDYWGQGTSVTVSS
VL: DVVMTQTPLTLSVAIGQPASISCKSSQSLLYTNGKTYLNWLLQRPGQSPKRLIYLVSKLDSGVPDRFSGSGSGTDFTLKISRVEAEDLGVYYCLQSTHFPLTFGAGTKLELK
As to B14, the Kd is below 1 nM.
